From patent US20160122426A1 (DONG A SOCIO, published 2016)
Where a chain is given by its changes, count along the chain named.

T1: mouse VEGF (mouse, UniProt Q00731-2 27-190)
T1 construct: Bought recombinant protein; also called mVEGF-A; mouse VEGF-A
T1 sequence (looked up): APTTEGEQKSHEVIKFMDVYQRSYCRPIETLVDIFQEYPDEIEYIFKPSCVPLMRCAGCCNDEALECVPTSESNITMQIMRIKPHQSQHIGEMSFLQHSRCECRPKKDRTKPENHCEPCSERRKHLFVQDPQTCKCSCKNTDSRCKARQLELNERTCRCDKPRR

T2: human placental growth factor (human, UniProt P49763-2 21-149, limits assumed)
T2 construct: also called PlGF; PIGF
T2 sequence (looked up): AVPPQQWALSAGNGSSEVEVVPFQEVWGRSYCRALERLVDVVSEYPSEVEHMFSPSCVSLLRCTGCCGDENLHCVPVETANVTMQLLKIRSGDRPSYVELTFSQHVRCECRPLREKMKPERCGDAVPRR

T3: human VEGF-C (human, UniProt P49767 103-227, limits assumed)
T3 construct: also called hVEGF-C
T3 sequence (looked up): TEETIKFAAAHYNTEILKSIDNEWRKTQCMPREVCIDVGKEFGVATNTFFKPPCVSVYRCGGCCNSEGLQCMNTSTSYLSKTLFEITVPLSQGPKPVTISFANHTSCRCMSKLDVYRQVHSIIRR

T4: human VEGF-B (human, UniProt P49765-2 22-188, limits assumed)
T4 construct: also called hVEGF-B
T4 sequence (looked up): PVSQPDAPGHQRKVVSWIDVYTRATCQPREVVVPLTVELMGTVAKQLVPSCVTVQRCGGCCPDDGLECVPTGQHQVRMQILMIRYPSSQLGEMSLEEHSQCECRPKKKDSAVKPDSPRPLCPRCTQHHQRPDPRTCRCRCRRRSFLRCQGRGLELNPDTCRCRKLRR

T5: human VEGF-D (human, UniProt O43915 93-201, limits assumed)
T5 construct: also called hVEGF-D
T5 sequence (looked up): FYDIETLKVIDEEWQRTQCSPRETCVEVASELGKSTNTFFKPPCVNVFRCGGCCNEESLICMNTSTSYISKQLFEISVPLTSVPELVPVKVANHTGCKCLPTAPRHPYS

B1: HF2-5 (antibody, V domains shown)
VH: EVQLVESGGGLVQPGGSLRLSCAASGFMIRSHGMQWVRQAPGKGLEYVAGISSDGSWARHSAAVEGRFTISRDDSKNTAYLQMNSLRAEDTAVYYCARDFSTGYGADSIDAWGQGTLVTVSS
VL: DIQMTQSPSSLSASVGDRVTITCSGGSDSAYGYGWYQQKPGKAPKTLIYWDDKRPSGVPSRFSGSRSGTDFTLTISSLQPEDFATYYCGAWEYSGGVGIFGQGTKVEIK
notes: also called HF-5
B2: HF2-9 (antibody, V domains shown)
VH: B1 VH with G26M, M28R, A58F, H60V, S61A
VL: B1 VL with D28M, S29E, A30P, Y31L
notes: also called HF-9
B3: HF2-11 (antibody, V domains shown)
VH: B1 VH with M28L, A58V, R59K, H60V, S61A
VL: B1 VL with D28S, S29E, A30P, Y31L
notes: also called HF-11; clone HF2-11
B4: HF2-4 (antibody, V domains shown)
VH: B1 VH with F27W, M28S, I29M, A58R
VL: B1 VL
notes: also called HF-4
B5: HF2-8 (antibody, V domains shown)
VH: B1 VH with M28H, A58L, R59K, H60L
VL: B1 VL with D28T, S29Y, A30S, Y31L
notes: also called HF-8
B6: HF2-1 (antibody, V domains shown)
VH: B1 VH with G26N, M28V, I29F, A58T, R59G, H60Y, S61G
VL: B1 VL
notes: also called HF-1
B7: HF2-26 (antibody, V domains shown)
VH: B1 VH with G26R, M28N, I29M, A58I, H60V, S61Q
VL: B1 VL with S24T, G25A, G26P, S27A
B8: HF2-25 (antibody, V domains shown)
VH: B1 VH with G26Y, F27M, M28E, I29Y, A58F, H60M, S61N
VL: B1 VL with D28N, S29F, A30P, Y31M
B9: HF2-19 (antibody, V domains shown)
VH: B1 VH with M28S, I29T, A58K, R59A, H60T, S61A
VL: B1 VL
B10: HF2-14 (antibody, V domains shown)
VH: B1 VH with G26H, F27S, M28S, A58L, H60Q, S61D
VL: B1 VL
B11: HF2-10 (antibody, V domains shown)
VH: B1 VH with G26F, F27Q, M28Y, I29F, A58F, H60V, S61A
VL: B1 VL with D28M, S29E, A30P, Y31L
B12: HF2-7 (antibody, V domains shown)
VH: B1 VH with G26Q, M28W, A58F, H60V, S61A
VL: B1 VL with D28M, S29E, A30P, Y31L
B13: HF2-13 (antibody, V domains shown)
VH: B1 VH with M28L, I29V, A58Q, H60V, S61N
VL: B1 VL with S29L, A30L, Y31L

Molecular target: T6, human VEGF (human, UniProt P15692-4 27-191)
T6 construct: Bought recombinant protein; also called hVEGF; human VEGF-A
Assay: ELISA, human VEGF coated, anti-human Fc-HRP, absorbance 450 nm [b]
Description: (§1) 1.5 ng of human VEGF diluted in 150 μL of buffer solution was placed in 96-well immune plate (Nunc, USA), and adsorbed at 4° C. overnight, followed by washing 3 times with a buffer solution containing 0.1% Tween 20. Then, they were reacted with a buffer solution including 1% bovine serum albumin (Sigma, USA) for 1 hr at room temperature, and washed 3 times. Then each well was treated with 150 μL of serially diluted antibody (1 ng/mL, 10 ng/mL, 30 ng/mL, 100 ng/mL, 1000 ng/mL and 3000 ng/mL) They were allowed to react for 1 hr at room temperature so that antigens may bind to antibodies, followed by washing 3 times with a buffer solution.
(§2) Each well was treated at 150 μL per well with anti-human immunoglobulin Fc-HRP antibody (AbSerotec, USA) diluted 1:20000 and allowed to react for 1 hr at room temperature. After the reaction was completed, washing was performed 3 times with a buffer solution, followed by addition of 150 μL of TMB (Sigma, USA) and color development for 10 min. The reaction was terminated with 1N sulfuric acid solution, and absorbance was measured at 450 nm using a spectrophotometer (Molecular Device, USA).

Binder	EC50 (read off the curve)
B1	~40 ng/mL
B2	~40 ng/mL
B3	~40 ng/mL

Molecular target: T6, human VEGF
Assay: ELISA, human VEGF coated, anti-human Fc-HRP, absorbance 450 nm [c]
Description: as §1, §2

Binder	EC50 (read off the curve)
B1	~20 ng/mL
B4	~20 ng/mL
B5	~20 ng/mL

Molecular target: T1, mouse VEGF
Assay: ELISA, mouse VEGF coated, anti-human Fc-HRP, absorbance 450 nm [a]

Binder	EC50 (read off the curve)
B1	~60 ng/mL
B2	~50 ng/mL
B3	~50 ng/mL
B6	~80 ng/mL

Molecular target: T6, human VEGF
Assay: competition ELISA: human VEGF coated, 9 nM KDR ECD IgG-Fc (VEGFR2) added together with the antibody, bound receptor-Fc detected, absorbance 405 nm
Description: 0.5 μg/ml of human VEGF was coated to 96-well ELISA plate and blocked with PBS solution containing 3% BSA and 0.05% Tween 20.

Binder	IC50 (read off the curve)
B1	~5 nM
B2	~5 nM
B3	~5 nM
B6	~5 nM

Molecular target: T2, human placental growth factor
Assay: ELISA, 0.2 ug/ml protein coated, anti-human IgG-Fab-HRP, absorbance 650 nm; antibody concentration not shown
Description: (§3) 0.2 μg/ml each of the respective proteins (hVEGF-A, mVEGF-A, hVEGF-B, hVEGF-C, hVEGF-D and PlGF) (R&D systems) were coated to the wells of ELISA plate, respectively. After blocking them with PBS containing 3% BSA and 0.05% Tween 20 for 30 min at 37° C., antibody clone proteins of increasing concentrations were incubated at 37° C. for 2 hr. Then, the wells were washed with PBS containing 3% BSA and 0.05% Tween 20 for 3 times, and anti-human IgG-Fab-HRP conjugate (Jackson Immunoresearch, USA) was added thereto and incubated for 1 hr at room temperature. Then they were washed with PBS containing 3% BSA and 0.05% Tween 20 for 3 times, and developed using TMB, and absorbance was measured at 650 nm.

Binder	binding result
B1	no binding
B2	no binding
B3	no binding
B6	no binding

Molecular target: T3, human VEGF-C
Assay: as above
Description: as §3

Binder	binding result
B1	no binding
B2	no binding
B3	no binding
B6	no binding

Molecular target: T4, human VEGF-B
Assay: as above
Description: as §3

Binder	binding result
B1	no binding
B2	no binding
B3	no binding
B6	no binding

Molecular target: T5, human VEGF-D
Assay: as above
Description: as §3

Binder	binding result
B1	no binding
B2	no binding
B3	no binding
B6	no binding

Molecular target: T6, human VEGF
Assay: ELISA, human VEGF coated, absorbance 650 nm [g]

Binder	EC50 (read off the curve)
B7	~0.3 nM
B8	~0.2 nM
B9	~0.1 nM

Molecular target: T6, human VEGF
Assay: SPR (BIAcore X100), VEGF on CM5 chip, IgG injected, 1:1 Langmuir
Text: Meanwhile, to measure the affinity, human VEGF and mouse VEGF were coupled to carboxymethylated dextran biosensor chips (CM5, GE) according to the manufacturer's instructions.
The association and dissociation rates were expressed by the association and dissociation sensorgram, and calculated using a simple 1:1 Langmuir binding model (BIAcore X100 evaluation software, ver. 2.0).

Binder	Kd	koff	kon
B1	0.019 nM	2.6e-05 s⁻¹	1.3e+06 M⁻¹ s⁻¹
B2	0.018 nM	3.2e-05 s⁻¹	1.7e+06 M⁻¹ s⁻¹
B3	0.0047 nM	6.8e-06 s⁻¹	1.4e+06 M⁻¹ s⁻¹
B6	< 0.001 nM	< 1e-06 s⁻¹	2.5e+06 M⁻¹ s⁻¹
B4	0.0019 nM	3.1e-06 s⁻¹	1.6e+06 M⁻¹ s⁻¹
B5	0.036 nM	5.7e-05 s⁻¹	1.5e+06 M⁻¹ s⁻¹
B10	< 0.001 nM	< 1e-06 s⁻¹	1.3e+06 M⁻¹ s⁻¹
B11	< 0.001 nM	< 1e-06 s⁻¹	1.6e+06 M⁻¹ s⁻¹
B12	0.016 nM	2.7e-05 s⁻¹	1.6e+06 M⁻¹ s⁻¹
B13	≤ 0.009 nM	≤ 1e-05 s⁻¹	1.4e+06 M⁻¹ s⁻¹

Molecular target: T1, mouse VEGF
Assay: ELISA and BIAcore

Binder	fold affinity over mother clone F
B1	≥ 10 times
B7	≥ 10 times
B2	≥ 10 times
B3	≥ 10 times
B6	≥ 10 times
B4	≥ 10 times
B5	≥ 10 times
B10	≥ 10 times
B8	≥ 10 times
B11	≥ 10 times
B9	≥ 10 times
B12	≥ 10 times
B13	≥ 10 times

Molecular target: T6, human VEGF
Assay: ELISA and BIAcore

Binder	fold affinity over mother clone F
B1	≥ 10 times
B7	≥ 10 times
B2	≥ 10 times
B3	≥ 10 times
B6	≥ 10 times
B4	≥ 10 times
B5	≥ 10 times
B10	≥ 10 times
B8	≥ 10 times
B11	≥ 10 times
B9	≥ 10 times
B12	≥ 10 times
B13	≥ 10 times
